Consider 12 molecules from paper PMC10729762, “CsrA selectively modulates sRNA-mRNA regulator outcomes”.

Series [1] addresses T1, CsrA (UniProt P69913 1-61). The experiment in a line: EMSA; 3 or 6 uM CsrA; 10 nM denatured RNA, 0-6 uM CsrA, 0-3 uM Hfq; 1X binding buffer (10 mM Tris-HCl pH 7.5, 10 mM MgCl2, 100 mM KCl) plus CsrA dilution buffer, 11% glycerol, 20 mM. The settings on record: protein: recombinant, chain copies: 2. Background: A gel shift assay detects complexes by their altered migration in electrophoresis.

Series [2] has as its target T1, CsrA. The experiment in a line: EMSA; up to 6 uM CsrA; 10 nM denatured RNA, 0-6 uM CsrA, 0-3 uM Hfq; 1X binding buffer (10 mM Tris-HCl pH 7.5, 10 mM MgCl2, 100 mM KCl) plus CsrA dilution buffer, 11% glycerol, 20 mM. The settings on record: protein: recombinant; chain copies: 2; label: internal 32P-UTP.
Series [3] addresses T1, CsrA. The experiment in a line: EMSA; 6 uM CsrA; 10 nM denatured RNA, 0-6 uM CsrA, 0-3 uM Hfq; 1X binding buffer (10 mM Tris-HCl pH 7.5, 10 mM MgCl2, 100 mM KCl) plus CsrA dilution buffer, 11% glycerol, 20 mM. The settings on record: protein: recombinant; chain copies: 2; label: internal 32P-UTP.

T1 sequence (P69913 whole entry): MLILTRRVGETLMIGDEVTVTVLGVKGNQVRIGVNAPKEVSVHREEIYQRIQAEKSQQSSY

B1: SgrS (structured_RNA)
RNA: GAUGAAGCAAGGGGGUGCCCCAUGCGUCAGUUUUAUCAGCACUAUUUUACCGCGACAGCGAAGUUGUGCUGGUUGCGUUGGUUAAGCGUCCCACAACGAUUAACCAUGCUUGAAGGACUGAUGCAGUGGGAUGACCGCAAUUCUGAAAGUUGACUUGCCUGCAUCAUGUGUGACUGAGUAUUGGUGUAAAAUCACCCGCCAGCAGAUUAUACCUGCUGGUUUUUUUU
Regarding B1, in series [1] (label: internal 32P-UTP), the binding result was “binds”.

B2: SibC (structured_RNA)
RNA: GUAAGGGUAAGGGAGGAUUGCUCCUCCCCUGAGACUGACUGUUAAUAAGCGCUGAAACUUAUGAGUAACAGUACAAUCAGUAUGAUGACAAGUCGCAUCAUAACCCUUCUCCUUCAAGCCCUCGCUUCGGUGAGGGCUUU
With B2, in series [2], the binding result is on record as “no binding”.

B3: McaS (structured_RNA)
RNA: ACCGGCGCAGAGGAGACAAUGCCGGAUUUAAGACGCGGAUGCACUGCUGUGUGUACUGUAGAGUCUGGCGGAUGUCGACAGACUCUAUUUUUU
For the molecule B3, the binding result in series [1] (label: internal 32P-UTP) was “binds”.

B4: Spot 42 (spf) (structured_RNA)
RNA: GUAGGGUACAGAGGUAAGAUGUUCUAUCUUUCAGACCUUUUACUUCACGUAAUCGGAUUUGGCUGAAUAUUUUAGCCGCCCCAGUCAGUAAUGACUGGGGCGUUUUUUA
Turning to B4, the binding result in series [1] (label: internal 32P-UTP (EMSA)) is recorded as “binds”.

B5: SibA (structured_RNA)
RNA: GUGAGGGUUAGGGAGAGGUUUCCCCCUCCCCCUGGUGUUCUUAGUAAGCCUGGAAGCUAAUCACUAAGAGUAUCACCAGUAUGAUGACGUGCUUCAUCAUAACCCUUUCCUUAUUAAAAGCCCUCUUCUCCGGGAGAGGCUUU
For the molecule B5, in series [1] (label: internal 32P-UTP), the binding result was “binds”.

B6: GadY (structured_RNA)
RNA: ACUGAGAGCACAAAGUUUCCCGUGCCAACAGGGAGUGUUAUAACGGUUUAUUAGUCUGGAGACGGCAGACUAUCCUCUUCCCGGUCCCCUAUGCCGGGUUUUUUU
As to B6, the binding result in series [1] (label: internal 32P-UTP) is “binds”.

B7: MicL-S (structured_RNA)
RNA: AUUUUUACCGUUGCAUCAUGUCGCCCAAUAUGAUGCUUGCUCGUACCAGGCCCCUGCAAUUUCAACAGGGGCCUUUUUUU
As to B7, the binding result in series [3] is listed as “binds”.

B8: ChiX (structured_RNA)
RNA: ACACCGUCGCUUAAAGUGACGGCAUAAUAAUAAAAAAAUGAAAUUCCUCUUUGACGGGCCAAUAGCGAUAUUGGCCAUUUUUUU
Take B8: in series [1] (label: internal 32P-UTP), the binding result was “binds”.

B9: DsrA (structured_RNA)
RNA: AACACAUCAGAUUUCCUGGUGUAACGAAUUUUUUAAGUGCUUCUUGCUUAAGCAAGUUUCAUCCCGACCCCCUCAGGGUCGGGAUUU
Take B9: the binding result in series [1] (label: internal 32P-UTP) is “binds”.

B10: GcvB (structured_RNA)
RNA: ACUUCCUGAGCCGGAACGAAAAGUUUUAUCGGAAUGCGUGUUCUGGUGAACUUUUGGCUUACGGUUGUGAUGUUGUGUUGUUGUGUUUGCAAUUGGUCUGCGAUUCAGACCAUGGUAGCAAAGCUACCUUUUUUCACUUCCUGUACAUUUACCCUGUCUGUCCAUAGUGAUUAAUGUAGCACCGCCUAAUUGCGGUGCUUUUUUUU
For the molecule B10, in series [2], the binding result is recorded as “no binding”.

B11: GlmZ (structured_RNA)
RNA: GUAGAUGCUCAUUCCAUCUCUUAUGUUCGCCUUAGUGCCUCAUAAACUCCGGAAUGACGCAGAGCCGUUUACGGUGCUUAUCGUCCACUGACAGAUGUCGCUUAUGCCUCAUCAGACACCAUGGACACAACGUUGAGUGAAGCACCCACUUGUUGUCAUACAGACCUGUUUUAACGCCUGCUCCGUAAUAAGAGCAGGCGUUUUUUU
Take B11: the binding result in series [3] is given as “binds”.

B12: SibD (structured_RNA)
RNA: ACAAGGGUGAGGGAGGAUUUCUCCCCCCUCUGAUUGGCUGUUAAUAAGCUGCGAAACUUACGAGUAACAACACAAUCAGUAUGAUGACGAGCUUCAUCAUAACCCUUUCCUUCUGUAAGGCCCCCUUCUUCGGGAGGGGCUUU
B12: in series [3], the binding result is given as “binds”.
